Measurements as given in US20200306375A1 (ALETA BIOTHERAPEUTICS, published 2020).

Biological target: T1, FMC63 CAR-Flag (construct #140)
T1 construct: also called CAR19; CD19 CAR construct
Test: flow cytometry on 293T cells transfected with construct #140; anti-mouse Fc gamma-PE detection
Protocol: Cells transfected with construct #140 (SEQ ID NO: 317) (2.5×10\hat{ }5 in 50 ul) were incubated with 50 u1 sup or purified (5 ug/ml as final conc.) protein of constructs#151/#152 (SEQ ID NO: 319/ SEQ ID NO: 320) for 30 min at 4° C., spun and washed twice with FACS buffer. This was followed by another incubation with anti-mouse Fc gamma-PE for 30 min at 4° C. Cells were spun and washed as above, and fixed with 1% PFA in PBS. Fixed cells were analyzed on Accuri 6 for CAR expression binding (PE positive).

T1 sequence (chain, as listed by the source): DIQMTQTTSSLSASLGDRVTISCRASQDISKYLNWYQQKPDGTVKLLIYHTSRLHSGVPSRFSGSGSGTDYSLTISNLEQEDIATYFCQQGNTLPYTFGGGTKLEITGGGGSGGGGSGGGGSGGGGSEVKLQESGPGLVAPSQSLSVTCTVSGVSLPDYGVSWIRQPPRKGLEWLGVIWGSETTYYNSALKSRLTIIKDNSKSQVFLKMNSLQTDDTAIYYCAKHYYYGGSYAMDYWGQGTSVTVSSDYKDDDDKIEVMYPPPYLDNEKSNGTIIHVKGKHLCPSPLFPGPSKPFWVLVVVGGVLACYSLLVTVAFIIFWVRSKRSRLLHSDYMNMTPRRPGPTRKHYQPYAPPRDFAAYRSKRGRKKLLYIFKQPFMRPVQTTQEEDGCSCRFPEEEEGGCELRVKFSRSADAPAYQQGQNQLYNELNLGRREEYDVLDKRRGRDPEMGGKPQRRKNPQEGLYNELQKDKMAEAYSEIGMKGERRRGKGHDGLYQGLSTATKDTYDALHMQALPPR

binding result: binds
B1: anti-FMC63 antibody, 136.20.1 (antibody, mouse IgG2a, kappa, V domains shown)
VH: EVKLVESGGGLVQPGGSLKLSCAASGFDFSRYWMSWVRQAPGKGLEWIGEINLDSSTINYTPSLKDKFIISRDNAKNTLYLQMSKVRSEDTALYYCARRYDAMDYWGQGTSVTVSS
VL: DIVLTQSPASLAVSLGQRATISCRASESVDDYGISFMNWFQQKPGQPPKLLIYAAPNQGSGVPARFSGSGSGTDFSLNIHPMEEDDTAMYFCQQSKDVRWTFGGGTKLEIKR
notes: also called anti-FMC63 (anti-Id) antibody; constructs #151/#152
